Measurements taken from the nanobody polyreactivity screen of Harvey et al. (2022).

Test: yeast display, Sf9 membrane polyspecificity reagent, FACS + sequencing; frameworks hold sequencing errors
Method in brief: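 A synthetic nanobody library was expressed on Saccharomyces cerevisiae BJ5465 by galactose induction for 36–48 hours. The library was stained for 1 hour at 4 °C with 10% biotinylated, detergent-solubilized Sf9 membrane reagent and enriched with streptavidin microbeads before FACS. Low and high (top ~1%) gates were set on anti-HA fluorescence for expression and streptavidin fluorescence for reagent binding, and each polyreactivity label reflects the gate of origin.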
For “QVQLVESGGGLVQAGGSLRLSCAASGITFRRNAMGWYRQAPGKERELFAGITRGGTTKYADSVKGRFTISRDNAKNTVYLQMNSLKPEDTAVYFCAAKDNSYGGPPQFGYWGQGTQVTVSS”, the “polyreactivity (PSR sort gate)” value was “high polyreactivity”.
With “QVQLVESGRGLVQAGGSLRLSCAASGSILTYYTMGWYRQAPGKERELVAAITRRGGSTYYADSVKGRFTISRDNAKNTVYLQMNRLKPEDTAVYYCNRVLSYHRHKLGMGYWGQGTHVTVSS” the “polyreactivity (PSR sort gate)” value was “high polyreactivity”.
For “QVQLVETGGGLVQAGGSLRLSCAASGSIFRYNAKGWYRQAPGKEREFVAAITRSGGSTYADSVKGRFTISRDNAKNTVSLQLNSLKPEDTAVYYCAATRLSRYEYWGQGTQVTVSS”, the “polyreactivity (PSR sort gate)” value was “low polyreactivity”.
For “QVQLVESGGGLVQAGGSLRLSCAASGRIFTNNAMGWYRQAPGKERELVAAISKRGGSTYYADSVKGRFTISRDNAKNTVYLQMNSLKPEDTAVYYCNAREYIHWRGALGLFGSWGQGTQVTVSS”, the “polyreactivity (PSR sort gate)” value was “high polyreactivity”.
In the case of “QVQLVESGVGLVQAGGSLGLTCAASGSIFYRYTMGWYREAPGKERELVAAISSDGDSTYYADSVKGRFTISRDNAKNTVYLQMNSLKPEDTAVYYCAADLEPYIGYHFYYWGQGTQVTVSS”, the “polyreactivity (PSR sort gate)” value is reported as “low polyreactivity”.
With “QVQLVESGRGLVQAGGSLRLSCAASGRIFVSNVMGWYRQAPGKERELVATITIGGITYYADSVKGRFTISRDNAKNTVYLQMNSLKPEDTAVYYCAADRRRFSPYGLYIHPGFDYWGQGTQVTVSS” the “polyreactivity (PSR sort gate)” value was “low polyreactivity”.
In the case of “QVQLVESGGGLVQAGGSLRLSCAASGSTFQPYAMGWYRPAPGKERELVAAIRYSGGITYYADSVKGRFTISRDNAKNSVYLQMNSLKPEDTAVYYCAAYGFYGGDYWGQGTQVTVSS”, the “polyreactivity (PSR sort gate)” value is reported as “high polyreactivity”.
In the case of “QVQLVESGGGLVQEGGSLRLSCAATGSTFDANAMGWYRQAPGKERELVATISDGGSTNYADSVKGRFTISRDNAKNTVYLQMNSLKPEDTAVYYCAAVKLFLGLGYDYWGQGTQVTVSS”, the “polyreactivity (PSR sort gate)” value is reported as “low polyreactivity”.
With “QVQLVESGGGLVQAGGSLRLSCAASGLTFYTYAMGWYRQAPGKERELVAAISSGGSTNYADSVKGRFTISRDNAKNTVYLQMNSLKPEDTAVYYCAADPSYYTYFSFDLSESDYWGLGTQVTVSS” the “polyreactivity (PSR sort gate)” value was “low polyreactivity”.
In the case of “QVQLVESGGGLVQAGGSLRLSCAASGITLTKNAMGWYRQAPGKERELVAGITRGSRTNYADSVKGRFTISRDNAKNSVYLQMNSLIPEDTAVYYCAASYWPYRGPVGGSKMYFWGQGTQVTVSS”, the “polyreactivity (PSR sort gate)” value is reported as “high polyreactivity”.
With “QVQLVESGGGLVQAGGSLRLSCAASGIIFKGYDMGWYRQAPGKERELVAAISSGSTNYADSVKGRFTISRDNAKNTVYLQMNSLKPEDTAVYYCAVRTYRYQSWGNYYLEYDYWGQGTQVTVSS” the “polyreactivity (PSR sort gate)” value was “low polyreactivity”.
In the case of “QVQLVESGGGLVQAGGSLRLSCAASGSIFDVYAMGWYRQAPGKERELVAAITFDGGSTYYADSVKGRFTISRDNAKNTVYLQMNSLKPEDTAVYDCNAEFYFLWDWQSFDYWGQGTQVTVSS”, the “polyreactivity (PSR sort gate)” value is reported as “high polyreactivity”.
With “QVQLVESGGGLVQAGGSLRLSCAASGSTFVIYDMGWYRQAPGKERELVAAISYSGGSTYYADSVKGRFTISRDNAKNTVYLQMNSLKPEDTAVYYCNAGVLVLLYAYLPSEQEYWGQGTQVTVSS” the “polyreactivity (PSR sort gate)” value was “low polyreactivity”.
With “QVQLVESRGGLVQAGGSLRLSCAASGSIFDVNAMGWYRQAPGKERELVAAISQRGTRTYYADSVKGRFTISRDNAKNTVYLQMNSLKPEDTAVYYCNRGGWREYDSWGQGTQVTVSS” the “polyreactivity (PSR sort gate)” value was “high polyreactivity”.
With “QVQLVESGGGLVQAGGSLRLSCAASGRTFGYYGMGWYRQAPGKERELVASINFSSGSTFYADSVKGRFTISRDNAKNTVYLQMNSLKPEDTAVYYCAARAKAVRTYAYNYWGQGTQVTVSS” the “polyreactivity (PSR sort gate)” value was “low polyreactivity”.
For “QVQLVQSGGGLVQAGGSLRLICAASGGTFSYNTMGWYRQAPGKVRELVAVITFSGGSTYYADCVKGRFTISRDNAKNTVYLQMNSLKQEDTAVYYCAADWLSKYDYWGQGTQVTVSS”, the “polyreactivity (PSR sort gate)” value was “low polyreactivity”.
With “QVQLVESGGGLVQAGGSLRLSCAASGSTFHYYAMGWYRQAPGKERELVAAIRTSGGSTYYADSVKGRFTISRDNAKNTVYLQMNSLKPEDTAVYYCNRVLGYPYGVDYWGQGTQVTVSS” the “polyreactivity (PSR sort gate)” value was “high polyreactivity”.
With “QDQLVESGGGLVQAGGSLRLSCAASGSTFSWYAMGWYRQAPGKERELVAAINNRSGSTSYADSVKGRFTISRDNAKNTVYLQMNSLKPEDTAVYYCAAEGTDGLYDWEYDYWGQGTQVTVSS” the “polyreactivity (PSR sort gate)” value was “high polyreactivity”.
With “QVQLVESGGGLVQAGGSLRLSCAASGSTFQRYAMGWYRQAPGKERELVAAINKSGGTTYYADSVKGRFTISRDNAKNTVYLLMNSLKPEDTAVYYCATDNPVVYQPGNMDYWGQGTQVTVSS” the “polyreactivity (PSR sort gate)” value was “low polyreactivity”.
With “QVQLVESGGGLVQAGGSLRLSCAASGRTLATYAMGWYRQAPGKERELVADISWRGGTTYYADSVKGRFTISRDNAKNTVYLQMNSLKPEDTAVYYCAKRFLFHSYYWGQGSQVTVSS” the “polyreactivity (PSR sort gate)” value was “high polyreactivity”.
In the case of “QVQLVESGGGLVQAGGSLRLSCAASGRTFVFNAMGWYSPAPGKERDLVAGISGSGGSTYYADSVKGRFTISRDNAKNTVYLQMNSLKPEDTAVYYCATKFPRKELDQDSVSGLGYWGLGTQVTVSS”, the “polyreactivity (PSR sort gate)” value is reported as “low polyreactivity”.
With “QVQLVESGGGLVQAGGSLRLSCAASGSIFSYYVMGWYRQAPGKERELVAAISYSGGRTYYADSVKGRFTISRDNAKNTVYLQMNSLKPEDTAVYYCAASRRVGEVSYYYWGQGTQVTVSS” the “polyreactivity (PSR sort gate)” value was “high polyreactivity”.
With “QVQLVESGGGLVQAGGSLRLSCAASGLIFYRYTMGWYRQAPGKERELVAAISRRGGSTFYADSVKGRFTISRDNAKNTVYLQMNSLKPEDTAVYYCAAASWYRRKIYYSWGQGTQVTVSS” the “polyreactivity (PSR sort gate)” value was “high polyreactivity”.
In the case of “QVQLVESGGGLDQAGGSLRLSCAASGRILRGYVMGWYRQAPGKERELVATITGRGGSTYYADSVKGRFTISRDNAKNSVYLQMNSLKPEDPAVYYCNKDGYPYFGRSESWGQGPQVTVSS”, the “polyreactivity (PSR sort gate)” value is reported as “low polyreactivity”.
For “QVQLVESGGGLVQAGGTLRLSCAATGSTFNINAMGWYRQAPGKERELFAAITRGGTNYADSVKGRFTISRDNAKNTVYLQMNSLKPEDTAVYYCAARGTGGSVKVTSLQQGGYWGQGTQVTVSS”, the “polyreactivity (PSR sort gate)” value was “high polyreactivity”.
With “QVQLVESGGGLVQAGGSLRLSCAASGSIFSPNDMGWYRQAPGKERELVAAITSAGSTYYADSVKGRFTISRDNAKNTVYLQMNSLKPDDTAVYYCAATYISVTDYAYFPLWYGYWGQGTQVTVSS” the “polyreactivity (PSR sort gate)” value was “low polyreactivity”.
With “QVQLVESGGGLVQAGGSLRLSCAASGFTFKINGMGWYRQATGKEREFVATIRTSTGRTNYADSVKGRFTISRDNAKNTVYLQMNSLKPEDTAVYYCAATFKSGMDYWGQGTQVTVSS” the “polyreactivity (PSR sort gate)” value was “high polyreactivity”.
With “QVQLVESGGGLVQAGRSLRLSCAASGFTLTPYAMGWYRQAPGKERELVARISDSGDSTYYADSVKGRFTMSRDNAKNTVYLQMNRLKPEDTAVYYCATDWNAGIDYYRFYADEYNYWGQGSQVTVSS” the “polyreactivity (PSR sort gate)” value was “low polyreactivity”.
In the case of “QVQLVESGGGLVQAGGSLRLSCAASGRTFIWYAMGWYRQAPGKEREFVAAIRSSGGRTYYADSVKGRFTISRDNAKNTVYLQMNSLKPEDTAVYYCAKEAYYGWYWYGYWGQGTQVTVSS”, the “polyreactivity (PSR sort gate)” value is reported as “high polyreactivity”.
In the case of “QVQLVESGGGLVQAGGSLRLSCAASGLTFPRYAMGWYRQAPGKEREFVAGITYSGGSTYYADSVKGRFTISRDNAKNTVYLQMNSLKPEDTAVYYCAATPWSYEYYYWGQGTQVTVSS”, the “polyreactivity (PSR sort gate)” value is reported as “low polyreactivity”.
With “QVQLVESGGGLVQAGGSLRLSCAASGSTFAYNAMGCYRQAPGKERELVAAISFTGDSTYYADSVKGRFTISRDNAKYTVYLQMNSLKPEDNRSSPVLSYDYWGQGTQVTVSS” the “polyreactivity (PSR sort gate)” value was “low polyreactivity”.
With “QVQLVESGGGLVQAGGSLRLSCPASGFTFVSYAMGWYRQAPGKERELVAAISRSGGTTYYADSVKGRFTISRDNAKNTVYLQMNSLKPEDTAVYYCAADFYVFYTRYYYWGQGTQVTVSS” the “polyreactivity (PSR sort gate)” value was “low polyreactivity”.
With “QVQLVESGGGLVQAGGSLRLSCAASGLTFAYYVMGWYRQAPGKERELVATITRGGDTYYADSVKGRFTISRANAKNTVYVQMNSLTPEDTAVYYCNAVWRVKYRRGLDYWGQGTQVTVSS” the “polyreactivity (PSR sort gate)” value was “high polyreactivity”.
For “QVQLVESGGGLVQAGGSLRLSCAASGRIFSNYAMGWYRQAPGKERELVAAITSGGNTYYADSVKGRFTISRDNAKNTVYLQMNSLKPEDTAVYYCATVFSVQGWYFGMNYWGQGSQVTVSS”, the “polyreactivity (PSR sort gate)” value was “low polyreactivity”.
In the case of “QVQLVESGGGLVQAGGSLRLSCAASGSTFKDNAMGRYIQAPGKERELVARITYRGGRTYADSVKGRFTISRDNAKNTVYFQMNSLKPEDTAVYYCAARPSLYGHNSRYDYWGQGTQVTVSS”, the “polyreactivity (PSR sort gate)” value is reported as “low polyreactivity”.
With “QVQLVESGGGLVQAGGSLRLSCAASGFTFDFYALGWYRQAPGKERELVAAISKNDGTTYYADSVKGRFTISRDNAKNTVYLQMNSLKPEDTAVYYCNAGNNVVVDYDYWGQGTQVTVSS” the “polyreactivity (PSR sort gate)” value was “low polyreactivity”.
In the case of “QVQLVESVVGLVQAGGSLLLSCDASGGIFLRYAMGSYRQAPGKERELVARISNRGGSTYYADSVKGRFTISRDYAKNTVYLQMNSLKPEDTAVYYCAADRWSSSRGDYWGQGTQVTVSS”, the “polyreactivity (PSR sort gate)” value is reported as “low polyreactivity”.
With “QVQLVESGGGLVQAGGSLRLSCAASGRTFFYYAMGWYRQAPGKERELVAAISTNGGSTYYADSVKGRFTISRDNAKNTVYLQMNSLKPEDTAVYYCNTYATPHRSGGGLGGHYYWGQGTQVTVSS” the “polyreactivity (PSR sort gate)” value was “low polyreactivity”.
In the case of “QVQLVESVGGLVHAGGSLRLSCAASGSTFRYNAMGWYRQAPGKDRELVAAISWSGGSTYYADSVKGRFTISRDNAKNTVYFQMNSLIPEDTAVYYCAKVYFWGALSPDKYDEDYWGQGTQVTVSS”, the “polyreactivity (PSR sort gate)” value is reported as “low polyreactivity”.
For “QVQLVESGGGLVQAGGSLRLICAASGVIFLRYAMGWYRQAPGKERELVAAISSSGDITYYADSVKGRFTISRDNAKNTVYLQMYSLKPEDTAVYYCAATVGLWEYGYWGQGTQVTVSS”, the “polyreactivity (PSR sort gate)” value was “low polyreactivity”.
